Results: paper PMC5472220 (Nature structural & molecular biology, 2017)

Target: the molecule itself
Assay: cryo-EM structure

B1: E. coli CTP synthase (ecCTPS), wild type (enzyme)
chain: MTTNYIFVTGGVVSSLGKGIAAASLAAILEARGLNVTIMKLDPYINVDPGTMSPIQHGEVFVTEDGAETDLDLGHYERFIRTKMSRRNNFTTGRIYSDVLRKERRGDYLGATVQVIPHITNAIKERVLEGGEGHDVVLVEIGGTVGDIESLPFLEAIRQMAVEIGREHTLFMHLTLVPYMAASGEVKTKPTQHSVKELLSIGIQPDILICRSDRAVPANERAKIALFCNVPEKAVISLKDVDSIYKIPGLLKSQGLDDYICKRFSLNCPEANLSEWEQVIFEEANPVSEVTIGMVGKYIELPDAYKSVIEALKHGGLKNRVSVNIKLIDSQDVETRGVEILKGLDAILVPGGFGYRGVEGMITTARFARENNIPYLGICLGMQVALIDYARHVANMENANSTEFVPDCKYPVVALITEWRDENGNVEVRSEKSDLGGTMRLGAQQCQLVDDSLVRQLYNAPTIVERHRHRYEVNNMLLKQIEDAGLRVAGRSGDDQLVEIIEVPNHPWFVACQFHPEFTSTPRDGHPLFAGFVKAASEFQKRQAK
  stoichiometry N: 4
